Target: full-length human tau, null cysteine variant (C291S, C322S) (human, UniProt P10636-8 1-441, C291S | C322S)
Experiment: co-phase separation

- binding result: binds
B1: Ydj1, yeast Hsp40 (natural protein, UniProt P25491 1-409, looked up)
chain: MVKETKFYDILGVPVTATDVEIKKAYRKCALKYHPDKNPSEEAAEKFKEASAAYEILSDPEKRDIYDQFGEDGLSGAGGAGGFPGGGFGFGDDIFSQFFGAGGAQRPRGPQRGKDIKHEISASLEELYKGRTAKLALNKQILCKECEGRGGKKGAVKKCTSCNGQGIKFVTRQMGPMIQRFQTECDVCHGTGDIIDPKDRCKSCNGKKVENERKILEVHVEPGMKDGQRIVFKGEADQAPDVIPGDVVFIVSERPHKSFKRDGDDLVYEAEIDLLTAIAGGEFALEHVSGDWLKVGIVPGEVIAPGMRKVIEGKGMPIPKYGGYGNLIIKFTIKFPENHFTSEENLKKLEEILPPRIVPAIPKKATVDECVLADFDPAKYNRTRASRGGANYDSDEEEQGGEGVQCASQ

From paper doi:10.1101/2024.06.13.598862 (bioRxiv, 2024)
